Source: IntAct's records for PubMed 35512704

B1: Speckle-type POZ protein (Homo sapiens), O43791 (parent)
chain: MSRVPSPPPPAEMSSGPVAESWCYTQIKVVKFSYMWTINNFSFCREEMGEVIKSSTFSSGANDKLKWCLRVNPKGLDEESKDYLSLYLLLVSCPKSEVRAKFKFSILNAKGEETKAMESQRAYRFVQGKDWGFKKFIRRDFLLDEANGLLPDDKLTLFCEVSVVQDSVNISGQNTMNMVKVPECRLADELGGLWENSRFTDCCLCVAGQEFQAHKAILAARSPVFSAMFEHEMEESKKNRVEINDVEPEVFKEMMCFIYTGKAPNLDKMADDLLAAADKYALERLKVMCEDALCSNLSVENAAEILILADLHSADQLKTQAVDFINYHASDVLETSGWKSMVVSHPHLVAEAYRSLASAQCPFLGPPRKRLKQS

Variants of: B1
Details: with hnf1a_human HNF1A

effect of a mutation on the interaction	Variant
with no effect	F133V

Variants of: B1
Details: with igf1r_human IGF1R

effect of a mutation on the interaction	Variant
with no effect	F133V

Variants of: B1
Details: with il7ra_human IL7R

effect of a mutation on the interaction	Variant
with no effect	F133V

Variants of: B1
Details: with int12_human INTS12, Q96CB8

effect of a mutation on the interaction	Variant
with no effect	F133V

Variants of: B1
Details: with ist1_human IST1, P53990
Sequence of ist1_human IST1, P53990 (P53990 whole entry): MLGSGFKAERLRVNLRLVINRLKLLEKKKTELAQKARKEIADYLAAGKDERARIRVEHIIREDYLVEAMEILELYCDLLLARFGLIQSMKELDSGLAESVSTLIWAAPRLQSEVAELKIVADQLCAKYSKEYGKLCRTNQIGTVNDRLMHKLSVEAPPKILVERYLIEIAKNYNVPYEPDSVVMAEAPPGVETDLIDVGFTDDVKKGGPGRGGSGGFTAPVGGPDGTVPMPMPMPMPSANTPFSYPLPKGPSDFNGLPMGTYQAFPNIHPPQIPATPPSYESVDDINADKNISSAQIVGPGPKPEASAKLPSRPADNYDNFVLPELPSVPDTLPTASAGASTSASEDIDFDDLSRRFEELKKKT

effect of a mutation on the interaction	Variant
with no effect	F133V

Variants of: B1
Details: with jak1_human JAK1, P23458

effect of a mutation on the interaction	Variant
with no effect	F133V

Variants of: B1
Details: with jak3_human JAK3, P52333

effect of a mutation on the interaction	Variant
with no effect	F133V

Variants of: B1
Details: with kat2a_human KAT2A

effect of a mutation on the interaction	Variant
with no effect	F133V

Variants of: B1
Details: with kdm5a_human KDM5A

effect of a mutation on the interaction	Variant
with no effect	F133V

Variants of: B1
Details: with kdm5c_human KDM5C

effect of a mutation on the interaction	Variant
with no effect	F133V

Variants of: B1
Details: with vgfr2_human KDR

effect of a mutation on the interaction	Variant
with no effect	F133V

Variants of: B1
Details: with lims1_human LIMS1, P48059

effect of a mutation on the interaction	Variant
with no effect	F133V

Variants of: B1
Details: with maga6_human MAGEA6, P43360
Sequence of maga6_human MAGEA6, P43360 (P43360 whole entry): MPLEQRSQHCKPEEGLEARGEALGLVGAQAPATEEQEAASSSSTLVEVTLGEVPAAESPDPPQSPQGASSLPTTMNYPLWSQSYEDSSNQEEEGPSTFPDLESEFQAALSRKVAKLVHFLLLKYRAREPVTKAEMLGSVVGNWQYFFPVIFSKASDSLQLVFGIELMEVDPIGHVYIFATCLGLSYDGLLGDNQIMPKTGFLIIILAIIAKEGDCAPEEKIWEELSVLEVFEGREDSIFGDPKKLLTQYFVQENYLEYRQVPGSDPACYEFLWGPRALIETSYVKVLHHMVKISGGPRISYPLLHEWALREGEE

effect of a mutation on the interaction	Variant
with no effect	F133V

Variants of: B1
Details: with m3k1_human MAP3K1, Q13233

effect of a mutation on the interaction	Variant
with no effect	F133V

Variants of: B1
Details: with mk10_human MAPK10, P53779

effect of a mutation on the interaction	Variant
with no effect	F133V

Variants of: B1
Details: with mk14_human MAPK14, Q16539

effect of a mutation on the interaction	Variant
with no effect	F133V

Variants of: B1
Details: with mk03_human MAPK3, P27361

effect of a mutation on the interaction	Variant
with no effect	F133V

Variants of: B1
Details: with mk04_human MAPK4, P31152

effect of a mutation on the interaction	Variant
with no effect	F133V

Variants of: B1
Details: with mk06_human MAPK6, Q16659

effect of a mutation on the interaction	Variant
with no effect	F133V

Variants of: B1
Details: with sin1_human MAPKAP1, Q9BPZ7

effect of a mutation on the interaction	Variant
with no effect	F133V

Variants of: B1
Details: with mcl1_human MCL1, Q07820
Sequence of mcl1_human MCL1, Q07820 (Q07820 whole entry): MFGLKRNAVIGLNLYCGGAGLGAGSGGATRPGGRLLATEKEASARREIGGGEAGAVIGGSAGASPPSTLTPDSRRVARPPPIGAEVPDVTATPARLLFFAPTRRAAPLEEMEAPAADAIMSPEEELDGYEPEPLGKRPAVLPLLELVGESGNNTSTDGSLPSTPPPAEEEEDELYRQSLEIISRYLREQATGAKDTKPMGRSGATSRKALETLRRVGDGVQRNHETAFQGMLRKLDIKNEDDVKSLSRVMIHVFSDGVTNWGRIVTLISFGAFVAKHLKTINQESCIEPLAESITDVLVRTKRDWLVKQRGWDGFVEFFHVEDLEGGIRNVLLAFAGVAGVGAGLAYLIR

effect of a mutation on the interaction	Variant
with no effect	F133V

Variants of: B1
Details: with mdm2_human MDM2, Q00987
Sequence of mdm2_human MDM2, Q00987 (Q00987 whole entry, looked up): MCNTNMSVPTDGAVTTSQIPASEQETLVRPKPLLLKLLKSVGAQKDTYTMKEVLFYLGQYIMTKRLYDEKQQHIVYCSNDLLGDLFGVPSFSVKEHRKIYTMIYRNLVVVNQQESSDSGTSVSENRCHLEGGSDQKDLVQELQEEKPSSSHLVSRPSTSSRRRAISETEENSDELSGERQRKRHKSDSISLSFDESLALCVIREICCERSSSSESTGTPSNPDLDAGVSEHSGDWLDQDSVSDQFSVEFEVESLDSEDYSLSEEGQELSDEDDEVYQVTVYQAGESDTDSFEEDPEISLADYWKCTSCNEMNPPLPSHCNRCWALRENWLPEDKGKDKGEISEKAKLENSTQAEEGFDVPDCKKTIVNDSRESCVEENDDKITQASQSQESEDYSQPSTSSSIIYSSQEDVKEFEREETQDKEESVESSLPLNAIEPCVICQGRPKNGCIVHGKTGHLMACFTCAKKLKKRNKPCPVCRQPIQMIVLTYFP

effect of a mutation on the interaction	Variant
with no effect	F133V

Variants of: B1
Details: with mitf_human MITF

effect of a mutation on the interaction	Variant
with no effect	F133V

Variants of: B1
Details: with mlh1_human MLH1, P40692

effect of a mutation on the interaction	Variant
with no effect	F133V

Variants of: B1
Details: with mtor_human MTOR

effect of a mutation on the interaction	Variant
with no effect	F133V

Variants of: B1
Details: with myb_human MYB

effect of a mutation on the interaction	Variant
with no effect	F133V

Variants of: B1
Details: with mybb_human MYBL2, P10244

effect of a mutation on the interaction	Variant
with no effect	F133V

Variants of: B1
Details: with myc_human MYC

effect of a mutation on the interaction	Variant
with no effect	F133V

Variants of: B1
Details: with mycn_human MYCN

effect of a mutation on the interaction	Variant
with no effect	F133V

Variants of: B1
Details: with ncoa3_human NCOA3, Q9Y6Q9

effect of a mutation on the interaction	Variant
with no effect	F133V

Variants of: B1
Details: with ikba_human NFKBIA

effect of a mutation on the interaction	Variant
with no effect	F133V

Variants of: B1
Details: with nox1_human NOX1, Q9Y5S8
Sequence of nox1_human NOX1, Q9Y5S8 (Q9Y5S8 whole entry): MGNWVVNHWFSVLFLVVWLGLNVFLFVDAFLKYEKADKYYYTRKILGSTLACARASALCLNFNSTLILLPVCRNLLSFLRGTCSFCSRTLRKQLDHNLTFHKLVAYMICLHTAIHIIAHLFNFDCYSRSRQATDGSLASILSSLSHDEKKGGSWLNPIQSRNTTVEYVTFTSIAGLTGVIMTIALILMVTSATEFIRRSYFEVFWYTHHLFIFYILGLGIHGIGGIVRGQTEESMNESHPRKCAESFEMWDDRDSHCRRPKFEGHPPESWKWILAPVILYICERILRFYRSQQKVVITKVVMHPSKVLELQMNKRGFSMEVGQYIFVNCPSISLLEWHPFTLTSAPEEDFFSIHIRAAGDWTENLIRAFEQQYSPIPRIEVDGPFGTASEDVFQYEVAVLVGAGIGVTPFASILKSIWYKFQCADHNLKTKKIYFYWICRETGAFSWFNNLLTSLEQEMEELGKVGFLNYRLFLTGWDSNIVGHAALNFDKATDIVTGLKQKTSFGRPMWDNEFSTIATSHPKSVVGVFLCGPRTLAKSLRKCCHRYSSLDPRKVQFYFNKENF

effect of a mutation on the interaction	Variant
with no effect	F133V

Variants of: B1
Details: with npm_human NPM1, P06748
Sequence of npm_human NPM1, P06748 (P06748 whole entry): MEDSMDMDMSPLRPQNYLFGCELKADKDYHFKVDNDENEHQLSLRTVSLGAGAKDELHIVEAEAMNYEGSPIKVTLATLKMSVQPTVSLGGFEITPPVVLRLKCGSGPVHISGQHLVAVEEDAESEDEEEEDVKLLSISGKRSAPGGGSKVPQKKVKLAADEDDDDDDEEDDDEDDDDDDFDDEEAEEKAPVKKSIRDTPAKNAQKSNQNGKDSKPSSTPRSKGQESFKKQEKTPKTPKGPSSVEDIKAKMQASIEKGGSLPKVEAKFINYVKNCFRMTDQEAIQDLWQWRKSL

effect of a mutation on the interaction	Variant
with no effect	F133V

Variants of: B1
Details: with nsd3_human NSD3, Q9BZ95

effect of a mutation on the interaction	Variant
with no effect	F133V

Variants of: B1
Details: with ntrk2_human NTRK2, Q16620

effect of a mutation on the interaction	Variant
with no effect	F133V

Variants of: B1
Details: with ntrk3_human NTRK3, Q16288

effect of a mutation on the interaction	Variant
with no effect	F133V

Variants of: B1
Details: with pak3_human PAK3, O75914

effect of a mutation on the interaction	Variant
with no effect	F133V

Variants of: B1
Details: with prkn_human PRKN

effect of a mutation on the interaction	Variant
with no effect	F133V

Variants of: B1
Details: with pb1_human PBRM1, Q86U86

effect of a mutation on the interaction	Variant
with no effect	F133V

Variants of: B1
Details: with pcbp1_human PCBP1, Q15365

effect of a mutation on the interaction	Variant
with no effect	F133V

Variants of: B1
Details: with pdcd1_human PDCD1, Q15116
Sequence of pdcd1_human PDCD1, Q15116 (Q15116 whole entry): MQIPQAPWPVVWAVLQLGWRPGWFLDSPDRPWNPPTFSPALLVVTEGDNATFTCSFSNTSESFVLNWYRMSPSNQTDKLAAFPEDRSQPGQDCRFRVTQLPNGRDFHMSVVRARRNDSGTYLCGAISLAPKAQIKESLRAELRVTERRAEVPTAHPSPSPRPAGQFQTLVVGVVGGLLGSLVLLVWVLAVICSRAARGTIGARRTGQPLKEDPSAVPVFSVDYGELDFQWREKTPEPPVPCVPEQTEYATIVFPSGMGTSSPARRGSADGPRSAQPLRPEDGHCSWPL

effect of a mutation on the interaction	Variant
with no effect	F133V

Variants of: B1
Details: with pgfrb_human PDGFRB

effect of a mutation on the interaction	Variant
with no effect	F133V

Variants of: B1
Details: with pdk1_human PDK1, Q15118

effect of a mutation on the interaction	Variant
with no effect	F133V

Variants of: B1
Details: with pk3ca_human PIK3CA

effect of a mutation on the interaction	Variant
with no effect	F133V

Variants of: B1
Details: with pk3cb_human PIK3CB

effect of a mutation on the interaction	Variant
with no effect	F133V

Variants of: B1
Details: with pk3cg_human PIK3CG

effect of a mutation on the interaction	Variant
with no effect	F133V

Variants of: B1
Details: with p85b_human PIK3R2, O00459

effect of a mutation on the interaction	Variant
with no effect	F133V

Variants of: B1
Details: with dpod1_human POLD1, P28340

effect of a mutation on the interaction	Variant
with no effect	F133V

Variants of: B1
Details: with dpoe1_human POLE

effect of a mutation on the interaction	Variant
with no effect	F133V

Variants of: B1
Details: with ppard_human PPARD

effect of a mutation on the interaction	Variant
with no effect	F133V

Variants of: B1
Details: with prdm1_human PRDM1, O75626

effect of a mutation on the interaction	Variant
with no effect	F133V

Variants of: B1
Details: with prex2_human PREX2, Q70Z35

effect of a mutation on the interaction	Variant
with no effect	F133V

Variants of: B1
Details: with aapk2_human PRKAA2, P54646

effect of a mutation on the interaction	Variant
with no effect	F133V

Variants of: B1
Details: with prss8_human PRSS8, Q16651

effect of a mutation on the interaction	Variant
with no effect	F133V

Variants of: B1
Details: with ptk6_human PTK6, Q13882

effect of a mutation on the interaction	Variant
with no effect	F133V

Variants of: B1
Details: with tf65_human RELA

effect of a mutation on the interaction	Variant
with no effect	F133V

Variants of: B1
Details: with rictr_human RICTOR

effect of a mutation on the interaction	Variant
with no effect	F133V

Variants of: B1
Details: with rnf43_human RNF43, Q68DV7

effect of a mutation on the interaction	Variant
with no effect	F133V

Variants of: B1
Details: with ros1_human ROS1, P08922

effect of a mutation on the interaction	Variant
with no effect	F133V

Variants of: B1
Details: with rl11_human RPL11, P62913

effect of a mutation on the interaction	Variant
with no effect	F133V

Variants of: B1
Details: with rl5_human RPL5, P46777

effect of a mutation on the interaction	Variant
with no effect	F133V

Variants of: B1
Details: with rs15_human RPS15, P62841

effect of a mutation on the interaction	Variant
with no effect	F133V

Variants of: B1
Details: with rxra_human RXRA

effect of a mutation on the interaction	Variant
with no effect	F133V

Variants of: B1
Details: with sdha_human SDHA

effect of a mutation on the interaction	Variant
with no effect	F133V

Variants of: B1
Details: with setbp_human SETBP1, Q9Y6X0
Sequence of setbp_human SETBP1, Q9Y6X0 (Q9Y6X0 whole entry): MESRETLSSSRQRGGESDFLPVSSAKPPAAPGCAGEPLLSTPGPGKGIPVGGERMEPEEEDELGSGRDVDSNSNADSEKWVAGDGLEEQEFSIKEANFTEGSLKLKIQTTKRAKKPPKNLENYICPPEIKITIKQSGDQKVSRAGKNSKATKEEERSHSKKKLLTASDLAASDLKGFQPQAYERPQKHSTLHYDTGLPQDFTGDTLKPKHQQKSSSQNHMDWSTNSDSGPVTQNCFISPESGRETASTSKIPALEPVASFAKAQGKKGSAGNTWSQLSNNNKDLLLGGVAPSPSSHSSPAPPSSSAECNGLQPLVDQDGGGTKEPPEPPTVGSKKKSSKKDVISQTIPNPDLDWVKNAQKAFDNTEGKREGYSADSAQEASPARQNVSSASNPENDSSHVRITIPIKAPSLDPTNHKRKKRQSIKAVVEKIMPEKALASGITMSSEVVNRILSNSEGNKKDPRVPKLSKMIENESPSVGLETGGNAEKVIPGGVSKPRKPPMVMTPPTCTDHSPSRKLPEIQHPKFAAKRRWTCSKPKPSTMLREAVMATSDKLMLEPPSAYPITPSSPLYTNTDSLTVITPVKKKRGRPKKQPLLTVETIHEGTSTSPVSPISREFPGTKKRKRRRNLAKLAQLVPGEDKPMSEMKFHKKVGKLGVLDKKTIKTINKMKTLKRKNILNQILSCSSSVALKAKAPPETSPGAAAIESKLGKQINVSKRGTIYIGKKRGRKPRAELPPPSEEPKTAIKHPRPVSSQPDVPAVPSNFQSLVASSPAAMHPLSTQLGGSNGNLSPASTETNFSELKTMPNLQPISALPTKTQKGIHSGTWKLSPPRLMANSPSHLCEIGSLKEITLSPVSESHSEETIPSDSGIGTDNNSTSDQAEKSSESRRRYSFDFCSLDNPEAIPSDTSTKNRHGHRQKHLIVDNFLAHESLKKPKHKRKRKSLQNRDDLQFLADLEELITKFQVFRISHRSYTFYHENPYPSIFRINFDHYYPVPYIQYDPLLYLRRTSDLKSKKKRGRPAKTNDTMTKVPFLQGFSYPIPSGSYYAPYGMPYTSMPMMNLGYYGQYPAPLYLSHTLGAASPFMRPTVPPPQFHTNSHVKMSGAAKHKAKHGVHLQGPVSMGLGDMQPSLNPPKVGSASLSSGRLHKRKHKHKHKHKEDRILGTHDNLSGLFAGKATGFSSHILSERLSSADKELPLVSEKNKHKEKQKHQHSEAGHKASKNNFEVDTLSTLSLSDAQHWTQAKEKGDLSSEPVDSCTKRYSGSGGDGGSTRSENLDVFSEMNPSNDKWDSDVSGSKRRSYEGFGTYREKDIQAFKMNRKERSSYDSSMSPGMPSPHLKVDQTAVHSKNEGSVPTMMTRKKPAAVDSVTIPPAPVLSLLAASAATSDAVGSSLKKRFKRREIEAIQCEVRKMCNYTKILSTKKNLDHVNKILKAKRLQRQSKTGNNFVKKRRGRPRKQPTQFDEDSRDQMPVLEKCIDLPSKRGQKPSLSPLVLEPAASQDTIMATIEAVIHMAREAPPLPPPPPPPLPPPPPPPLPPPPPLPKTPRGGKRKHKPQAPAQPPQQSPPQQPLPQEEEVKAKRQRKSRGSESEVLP

effect of a mutation on the interaction	Variant
with no effect	F133V

Variants of: B1
Details: with setb1_human SETDB1, Q15047

effect of a mutation on the interaction	Variant
with no effect	F133V

Variants of: B1
Details: with skp2_human SKP2, Q13309

effect of a mutation on the interaction	Variant
with no effect	F133V

Variants of: B1
Details: with xct_human SLC7A11, Q9UPY5
Sequence of xct_human SLC7A11, Q9UPY5 (Q9UPY5 whole entry): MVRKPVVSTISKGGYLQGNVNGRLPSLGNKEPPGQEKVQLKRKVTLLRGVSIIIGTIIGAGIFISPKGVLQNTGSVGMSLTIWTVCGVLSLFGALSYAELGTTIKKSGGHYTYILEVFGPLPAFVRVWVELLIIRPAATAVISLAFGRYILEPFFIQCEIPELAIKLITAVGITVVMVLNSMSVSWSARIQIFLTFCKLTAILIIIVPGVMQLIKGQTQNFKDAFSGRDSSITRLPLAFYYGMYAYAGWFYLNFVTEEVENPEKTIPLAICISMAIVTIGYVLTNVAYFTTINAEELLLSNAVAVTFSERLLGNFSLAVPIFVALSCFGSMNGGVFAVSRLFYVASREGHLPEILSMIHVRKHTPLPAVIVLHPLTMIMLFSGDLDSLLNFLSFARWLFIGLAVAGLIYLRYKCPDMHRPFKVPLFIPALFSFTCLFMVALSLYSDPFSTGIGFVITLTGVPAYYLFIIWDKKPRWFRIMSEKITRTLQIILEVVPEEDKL

effect of a mutation on the interaction	Variant
with no effect	F133V

Variants of: B1
Details: with smad1_human SMAD1, Q15797

effect of a mutation on the interaction	Variant
with no effect	F133V

Variants of: B1
Details: with smca4_human SMARCA4, P51532

effect of a mutation on the interaction	Variant
with no effect	F133V

Variants of: B1
Details: with snf5_human SMARCB1, Q12824

effect of a mutation on the interaction	Variant
with no effect	F133V

Variants of: B1
Details: with smo_human SMO

effect of a mutation on the interaction	Variant
with no effect	F133V

Variants of: B1
Details: with smuf1_human SMURF1, Q9HCE7

effect of a mutation on the interaction	Variant
with no effect	F133V

Variants of: B1
Details: with socs1_human SOCS1, O15524
Sequence of socs1_human SOCS1, O15524 (O15524 whole entry): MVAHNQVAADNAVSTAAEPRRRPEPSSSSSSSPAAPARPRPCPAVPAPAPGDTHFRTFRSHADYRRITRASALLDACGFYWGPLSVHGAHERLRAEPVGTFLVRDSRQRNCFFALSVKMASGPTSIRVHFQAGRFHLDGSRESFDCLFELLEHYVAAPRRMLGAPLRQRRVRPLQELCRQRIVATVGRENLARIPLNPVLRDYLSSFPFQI

effect of a mutation on the interaction	Variant
with no effect	F133V

Variants of: B1
Details: with sox10_human SOX10, P56693

effect of a mutation on the interaction	Variant
with no effect	F133V
